Data published in US8415393B2, “Anti-bacterial drug targeting of genome maintenance interfaces” (Wisconsin Alumni Research Foundation, priority 2007, dated 2013).
Positions count from the first letter of the chain named. Where no end group is shown, it is not given here. fluorescein = fluorescein moiety attached to the N-terminus of the peptide (N-terminal fluorescein label)

Experiments:
Test in all cases: fluorescence anisotropy equilibrium binding (Kd,app), ExoI variant titrated into fluorescein-labeled peptide
[1] = biological target: T1, ExoI Glu150Ala variant (Escherichia coli, UniProt P04995 1-475)
T1 construct: also called E150A; Glu150 variant
T1 sequence: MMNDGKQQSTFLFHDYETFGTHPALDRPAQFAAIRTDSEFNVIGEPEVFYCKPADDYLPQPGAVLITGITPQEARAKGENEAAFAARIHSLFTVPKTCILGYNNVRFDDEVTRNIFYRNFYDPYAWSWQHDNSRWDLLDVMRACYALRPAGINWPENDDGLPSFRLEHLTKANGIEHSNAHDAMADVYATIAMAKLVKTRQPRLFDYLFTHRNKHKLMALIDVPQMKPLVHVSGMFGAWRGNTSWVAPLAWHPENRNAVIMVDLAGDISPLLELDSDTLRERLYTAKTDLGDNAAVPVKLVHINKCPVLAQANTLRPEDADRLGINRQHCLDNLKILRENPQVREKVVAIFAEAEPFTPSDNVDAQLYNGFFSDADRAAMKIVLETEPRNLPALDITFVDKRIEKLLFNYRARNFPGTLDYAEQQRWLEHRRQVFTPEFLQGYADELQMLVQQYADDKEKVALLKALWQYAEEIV

[2] = biological target: T2, ExoI Tyr207Ala variant (Escherichia coli, UniProt P04995 1-475)
T2 construct: also called Y207A; Tyr207 variant
T2 sequence: T1 sequence with A150E, Y207A

[3] = biological target: T3, ExoI Arg316Ala variant (Escherichia coli, UniProt P04995 1-475)
T3 construct: residue flanks peptide A; also called R316A; Arg316 variant
T3 sequence: T1 sequence with A150E, R316A

[4] = biological target: T4, ExoI Lys227Ala variant (Escherichia coli, UniProt P04995 1-475)
T4 construct: basic ridge residue; also called K227A; Lys227 variant
T4 sequence: T1 sequence with A150E, K227A

[5] = biological target: T5, ExoI Arg338Ala variant (Escherichia coli, UniProt P04995 1-475)
T5 construct: basic ridge residue; also called R338A; Arg338 variant
T5 sequence: T1 sequence with A150E, R338A

B1: fluorescein-labeled SSB C-terminal peptide (fluorescein-WMDFDDDIPF) (peptide)
peptide: fluorescein-WMDFDDDIPF
notes: also called F-SSB-Ct; F-WT
[1]
  Kd: 72 nM
[2]
  Kd: > 1000 nM
[3]
  Kd: > 1000 nM
[4]
  Kd: ~1000 nM
[5]
  Kd: 398 nM
